# According to article PMC7914648 (Pharmaceuticals, 2021):
# Assays:
# [1] = Tissue distribution of An2-PAPTP and metabolites (liver, spleen, kidneys, heart) after i.v. injection; assay type: in vivo, mouse
# Excerpt: The total amount of An2-PAPTP and its metabolites, summarized in Table 3, is comprehensive of all the species having the characteristic psoralenic UV spectrum obtained by the overall extraction procedure (i.e., from organic solvent extraction and basic hydrolysis of the remaining pellet), and represents and underestimation of the real concentration in the tissue (see Section 4.7.3). This is because no recovery yield correction was applied, since it was impossible to identify most of the species extracted, and because PAPTPL extracted after high-pH hydrolysis of the pellet could come either from An2-PAPTP or from metabolites. For quantification in HPLC analysis, all the psoralenic species were assumed to have the same molar extinction coefficient as PAPTPL, an assumption justified by the near-identity observed for all the available psoralen-containing molecules.
# (§1) The liver, spleen, kidneys, heart obtained from untreated mice were weighed and homogenized with PBS pH 7.4 (1 vol) with a potter. The pre-established amount of PAPTPL was added into tissue homogenates or blood and, after thorough vortexing, 5 vol of acetone were added and the sample was sonicated for 2 min. Subsequently, 5 vol of ACN containing 0.1% TFA were added and the sample was sonicated for 5 min. The sample was then centrifuged at 12,000× g for 7 min at 4 °C and the supernatant was collected, concentrated with a Hetovac VR-1, and analyzed via HPLC-UV.
# as §1, with “Brain and liver” for “The liver, spleen, kidneys, heart”, “analyte” for “PAPTPL”, “homogenates” for “homogenates or blood”, “trifluoracetic acid (TFA)” for “TFA”
# (§2) To quantify the amount of An2-PAPTP stuck in the tissue, the pellet remaining after the procedure described above was incubated with intermittent Vortexing at 60 °C for 3 h with PBS pH 12.5/ACN 1:1 and then centrifuged at 12,000× g for 7 min. HPLC-UV analysis of the supernatant, measuring PAPTPL hydrolyzed from the tissue, thus indirectly reflects the amount of An2-PAPTPL in the pellet (Scheme 3). Quantification was as described for PAPTPL.
# (§3) A stock solution of the peptide-PAPTP conjugates was prepared in DMSO. TAT-PAPTP was administered at 8 and 5 μmol/kg bw and An2-PAPTP only at 5 μmol/kg bw. The calculated quantity of drugs was diluted from the stock solution in saline or mouse plasma to a final volume of 200 μL.
# [2] = Stability in blood (hydrolysis, PAPTPL release); assay type: in vitro ADME; settings: fresh heparinized C57BL mouse blood, 37 °C, 5 µM from 5 mM DMSO stock, HPLC-UV, % PAPTPL released relative to amount spiked, mean, n = 5 (An2-PAPTP) and 4 (TAT-PAPTP)
# Protocol: C57BL mice were anesthetized and blood was withdrawn from the jugular vein and heparinized. Blood samples (1 mL) were spiked with compound (5 µM; dilution from a 5 mM stock solution in DMSO) and incubated at 37 °C for 4 h (the maximum period allowed by blood stability). Aliquots were taken after 10 min, 30 min, 1 h, 2 h, and 4 h before HPLC-UV analysis.
# Each aliquot was treated as described above (Section 4.7.1). Compound stability in blood was expressed as % of PAPTPL released relative to the amount of An2-PAPTP and TAT-PAPTP spiked in the sample at time 0.
# [3] = assay type: in vivo, mouse; settings: An2-PAPTP 5 µmoles/kg bw i.v. in mouse plasma
# Protocol: The brains of these mice were analyzed to evaluate the presence of the construct in the tissue (see Section 4.7). Each brain was homogenized and incubated with an equal volume of phosphate-buffered saline (PBS, pH 12.5) for 24 h; 10 volumes of ethyl acetate were then added. After vigorous mixing, the organic phase was collected, concentrated and analyzed via HPLC. This procedure allows hydrolysis of the carbamate bond, leading to the extraction of PAPTPL, which is considered proportional to the amount of peptide-PAPTP conjugate (or its fragments) present in the brain.
# The protocol set up for PAPTPL recovery turned out to be inefficient for the quantification of TAT-PAPTP. An alternative protocol was thus developed. Tissue obtained from untreated mice was weighed and homogenized with PBS pH 7.4 (1 vol) with a potter. The pre-established amount of analyte was added into tissue homogenates and, after thorough vortexing, 1 vol of PBS pH 12.5 was added and the sample was incubated with intermittent vortexing at 60 °C for 24 h. This step is required to allow the hydrolysis of the carbamate bond connecting the peptide and PAPTPL. 10 vol of ethyl acetate were added and, after vortexing and sonication for 2 min, the sample was centrifuged at 12,000× g, 7 min, Room Temperature. The organic phase was collected and concentrated with Hetovac VR-1. ACN was added to the concentrated sample to allow the resuspension of PAPTPL and analyzed via HPLC. Quantification was as described for PAPTPL.
# as §1, with “Brain and liver” for “The liver, spleen, kidneys, heart”, “analyte” for “PAPTPL”, “homogenates” for “homogenates or blood”, “trifluoracetic acid (TFA)” for “TFA”
# as §2, §3
# [4] = Preliminary brain levels after intraperitoneal An2-PAPTP; assay type: in vivo, mouse; settings: An2-PAPTP 5 µmol/kg bw i.p. in DMSO; sacrifice at 20 min or 1, 2, 4 h; four mice
# Protocol: In preliminary tests An2-PAPTP was administered at 5 µmol/kg bw by the intraperitoneal (i.p.) route, using dimethylsulfoxide (DMSO) as the vehicle. […] Many brain-penetrating peptides bind to biomolecules such as proteins and cell structures such as membranes. Furthermore, the absence of a flowing bloodstream at the injection site may cause a poorly soluble molecule to remain confined in the vicinity of the point of delivery. […] Collectively, these preliminary results led to the adoption of the intravenous route. An2-PAPTP (5 µmoles/kg bw, in plasma) was thus administered by tail vein injection to mice.
# [5] = An2-PAPTP 5 µmoles/kg bw i.v., all psoralenic species, 312 nm, no recovery correction, mean ± SEM, n = 5
# [6] = An2-PAPTP i.v., found in one animal out of four
# [7] = An2-PAPTP i.v., mean ± SEM, n = 4
# [8] = An2-PAPTP i.v., mean ± SEM, n = 5
# [9] = An2-PAPTP i.v., mean ± SEM, n = 6
structure (smiles),measurement,setting,value
CC[C@H](C)[C@H](NC(=O)Oc1ccc(CCCOc2ccc([P+](CCCc3ccc(OCCCCOc4c5ccoc5cc5oc(=O)ccc45)cc3)(c3ccccc3)c3ccccc3)cc2)cc1)C(=O)N[C@H](C(=O)N[C@@H](Cc1ccccc1)C(=O)N[C@@H](Cc1ccccc1)C(=O)N[C@@H](Cc1ccc(O)cc1)C(=O)NCC(=O)NCC(=O)N[C@@H](CO)C(=O)N[C@@H](CCCNC(=N)N)C(=O)NCC(=O)N[C@@H](CCCCN)C(=O)N[C@@H](CCCNC(=N)N)C(=O)N[C@@H](CC(N)=O)C(=O)N[C@@H](CC(N)=O)C(=O)N[C@@H](Cc1ccccc1)C(=O)N[C@@H](CCCCN)C(=O)N[C@H](C(=O)N[C@@H](CCC(=O)O)C(=O)N[C@@H](CCC(=O)O)C(=O)N[C@@H](Cc1ccc(O)cc1)C(=O)O)[C@@H](C)O)[C@@H](C)O [An2-PAPTP],"Heart Psoralenic Species (nmol/g Tissue), 15 min",[1]; [5],0.2 ± 0.1 nmol/g Tissue
same,"Kidney Psoralenic Species (nmol/g Tissue), 15 min",[1]; [5],5 ± 4 nmol/g Tissue
same,"Spleen Psoralenic Species (nmol/g Tissue), 15 min",[1]; [5],28 ± 9 nmol/g Tissue
same,"Liver Psoralenic Species (nmol/g Tissue), 15 min","[1]; An2-PAPTP 5 µmoles/kg bw i.v., all species with psoralenic UV spectrum, 312 nm, no recovery correction, mean ± SEM, n = 5",23 ± 3 nmol/g Tissue
same,degradation of the peptide chain by liver peptidases,"[1]; An2-PAPTP 5 µmoles/kg bw i.v., liver, in vivo",degraded the peptide chain nearly completely in little more than one hour
same,"Heart Psoralenic Species (% of Administered Dose), 30 min, single animal",[1]; [6],0.07 % of Administered Dose
same,"Heart Psoralenic Species (nmol/g Tissue), 30 min, single animal",[1]; [6],0.36 nmol/g Tissue
same,"Kidney Psoralenic Species (% of Administered Dose), 30 min",[1]; [7],0.32 ± 0.07 % of Administered Dose
same,"Spleen Psoralenic Species (% of Administered Dose), 30 min",[1]; [7],0.27 ± 0.09 % of Administered Dose
same,"Heart Psoralenic Species (% of Administered Dose), 15 min",[1]; [8],0.07 ± 0.01 % of Administered Dose
same,"Kidney Psoralenic Species (% of Administered Dose), 15 min",[1]; [8],1.2 ± 0.8 % of Administered Dose
same,"Spleen Psoralenic Species (% of Administered Dose), 15 min",[1]; [8],1.2 ± 0.3 % of Administered Dose
same,"Kidney Psoralenic Species (% of Administered Dose), 60 min",[1]; [9],0.31 ± 0.03 % of Administered Dose
same,"Spleen Psoralenic Species (% of Administered Dose), 60 min",[1]; [9],0.8 ± 0.2 % of Administered Dose
same,"Heart Psoralenic Species (% of Administered Dose), 60 min","[1]; An2-PAPTP i.v., n = 6",0 % of Administered Dose
same,"Heart Psoralenic Species (nmol/g Tissue), 60 min","[1]; An2-PAPTP i.v., n = 6",0 nmol/g Tissue
same,"Liver Psoralenic Species (nmol/g Tissue), 30 min","[1]; as above, 30 min, n = 4",17 ± 2 nmol/g Tissue
same,"Liver Psoralenic Species (nmol/g Tissue), 60 min","[1]; as above, 60 min, n = 6",11 ± 3 nmol/g Tissue
same,"Kidney Psoralenic Species (nmol/g Tissue), 30 min","[1]; as above, n = 4",1.3 ± 0.2 nmol/g Tissue
same,"Spleen Psoralenic Species (nmol/g Tissue), 30 min","[1]; as above, n = 4",4.3 ± 1.4 nmol/g Tissue
same,"Kidney Psoralenic Species (nmol/g Tissue), 60 min","[1]; as above, n = 6",1.2 ± 0.1 nmol/g Tissue
same,"Spleen Psoralenic Species (nmol/g Tissue), 60 min","[1]; as above, n = 6",11 ± 3 nmol/g Tissue
same,hydrolyzed in mouse blood over 4 h (PAPTPL released),[2],about 60%
same,"Brain Psoralenic Species (nmol/g Tissue), 15 min","[3]; 15 min, PAPTPL after carbamate hydrolysis, mean ± SEM, n = 5",0.3 ± 0.1 nmol/g Tissue
same,"Brain Psoralenic Species (nmol/g Tissue), 30 min","[3]; 30 min, PAPTPL after carbamate hydrolysis, mean ± SEM, n = 4",0.4 ± 0.6 nmol/g Tissue
same,presence in brain one hour post-injection,[3]; one hour,only a trace could be detected
same,detection in brain after i.p. administration,[4],no An2-PAPTP or PAPTPL could be detected
